As usually defined, the Kd is the concentration at which binding is half-saturated. The low end stands for a tighter complex, the high end for a looser complex. A word on the kon: it is the rate constant with which the complex forms. Lower therefore signals slower complex formation.

Assay [1] addresses human BMP10 mature dimer (manufactured by R & D Systems, Inc., Cat #2926-BP) (human) (UniProt O95393). Nature of the assay: SPR (Biacore T100), antibody captured by anti-mouse IgG, human BMP10 mature dimer as analyte. (In SPR one partner is held on a chip, and binding of the other changes the refractive index at the surface.)
The target in assay [2] is T1, human BMP10 mature dimer (manufactured by R & D Systems, Inc., Cat #2926-BP) (human, UniProt O95393 317-424).
T1 construct: Bought product; also called human mature BMP10; mature BMP10
T1 sequence: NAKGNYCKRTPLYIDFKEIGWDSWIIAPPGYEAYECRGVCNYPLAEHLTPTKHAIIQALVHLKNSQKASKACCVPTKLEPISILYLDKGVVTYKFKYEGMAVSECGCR
Nature of the assay: SPR (Biacore T100), antibody captured by anti-human IgG, human BMP10 mature dimer as analyte. As for the experimental part:
(§1) The binding activity of the anti-BMP10 antibody was measured as follows. An anti-human IgG antibody was immobilized on a CMS sensor chip (manufactured by GE Healthcare Bio-Sciences, Inc., BR100530) using Human Antibody Capture Kit (manufactured by GE Healthcare Bio-Sciences Corporation, Cat #BR-1008-39) according to the attached protocol. To a flow cell in which the anti-human IgG antibody was immobilized, the antibody prepared at 5 μg/mL was added at a flow rate of 10 μL/min for 10 seconds.
(§2) Subsequently, human mature BMP10 prepared at 5 concentrations by 3-fold serial dilution from the 100 ng/mL was added thereto at a flow rate of 30 μL/min, and a binding reaction was monitored for 1 minute and a dissociation reaction was monitored for 10 minutes. The obtained sensorgram was analyzed using Bia Evaluation Software (manufactured by GE Healthcare Bio-Sciences Corporation), and the kinetic constant of each antibody was calculated. The calculated association rate constant (ka), dissociation rate constant (kd), and dissociation constant [kd/ka=KD] of each antibody are shown in Table 4.

Assay [3] deals with T1, human BMP10 mature dimer (manufactured …). Nature of the assay: SPR (Biacore T100), antibody captured by anti-human IgG, human BMP10 mature dimer as analyte; 100 ng/mL top concentration, 10 minutes dissociation (Example 13, Table 4). As to the method:
as §1, §2

The target is the same in assay [4]. The experiment in a line: SPR (Biacore T100), antibody captured by anti-human IgG, human BMP10 mature dimer as analyte. As for the experimental part:
Further, subsequently, human mature BMP10 prepared at 5 concentrations by 3-fold serial dilution from 300 ng/mL was added thereto at a flow rate of 30 μL/min, and a binding reaction was monitored for 1 minute and a dissociation reaction was monitored for 30 minutes. The obtained sensorgram was analyzed using Bia Evaluation Software (manufactured by GE Healthcare Bio-Sciences Corporation), and the kinetic constant of each antibody was calculated.
The source holds these as a separate data set.

Positions count from the first letter of the chain named. Like-named read-outs stand apart in the source and are kept apart here.

As to “MAB2926 (clone No. 462732, R & D Systems, Inc.) (antibody)”, the dissociation constant (Kd) in assay [1] was 0.0331 nM.

B1: 18C1 chimeric antibody (antibody, V domains shown)
VH: QVQLKETGPDLVQLTQTLSITCTVSGFSLTTYNVHWVRQPPGKGLEWMGTMWNGGGIDYNSAFKSRLSISRDTSKSQVFLKMNSLQTDDTAKYFCARLGYYVDYWGHGIMVTVSS
VL: QFVLIQSNSMSTSLGSTVKLSCKRSTGNIGSSYVYWYQQHEGRSPTTMIYDGDKRPDGVPDRFSGSIDSSSNSAFLTINNVQIEDEAIYFCQSFSSGIKFIFGGGTKLTVL
notes: also called ch18C1 antibody; ch18C1
For B1, the Kd in assay [2] and in assay [4] was 2.62 pM each time. This molecule had a kon in assay [3] of 3.88e+07 M⁻¹ s⁻¹.

B2: 12H3 chimeric antibody (antibody, V domains shown)
VH: B1 VH with T30S, T50A, D58N, L98F, Y101G, V102F, H107Q, I109V
VL: ETVMTQSPTSMSTSIGERVTLNCKASQSVGINVDWYQRTPGQSPKLLIHGASNRHTGVPDRFTGSGFGRDFTLTISNVEAEDLTIYYCLQYGSIPLTFGAGTKLELI
notes: also called ch12H3 antibody
In assay [4], B2 displayed a Kd of 11.8 pM.

B3: VLres04HVmut04 (antibody, V domains shown)
VH: QVQLQESGPDLVQPSQTLDITCTVSGFSLTTYNVHWVRQPPGKGLEWMGTMWNGGGIDYNSAFKSRLAISRDTSKNEVFLKMDSLQTDDTAKYFCARLGYYVDYWGQGILVTVSS
VL: B1 VL with V3A, N8D, L14A, F75S, N80D, I88V
notes: Humanized 18C1 antibody; also called VLres04HVmut04 antibody; hz18C1 antibody
The molecule B3 came in with a Kd in assay [2] of 3.19 pM.

B4: 11H10 chimeric antibody (antibody, V domains shown)
VH: B1 VH with T50A, I57T, G99A, Y100E, Y101G, V102F, H107Q, I109V
VL: DTVMTQSPASMSTSVGERVTVNCKASQSVGTVVAWFQQKPGQSPKRLIYLATNRHTGVPDRFTGSGFGRDFTLTISNVEAEDLAVYYCLQYGSIPFTFGSGTKLEIK
notes: also called ch11H10 antibody
B4 returned a Kd in assay [4] of 6.26 pM. This lies in the picomolar range.

B5: VLres14HVmut08 (antibody, V domains shown)
VH: B3 VH with Q13K, S65D, A68T, E77Q, K92V
VL: B1 VL with N8D, L14A, N80D, I88V
notes: Humanized 18C1 antibody; also called hz18C1 antibody; anti-BMP10 humanized antibody
In turn, B5 yielded a Kd in assay [2] of 2.71 pM.

B6: VLres16HVmut10 (antibody, V domains shown)
VH: B3 VH with S65D, K92V
VL: B1 VL with V3A, N8D, L14A, N80D, I88V
notes: as for B5
The molecule B6 gave a Kd in assay [2] of 2.88 pM.

B7: VLres14HVmut10 (antibody, V domains shown)
VH: B3 VH with S65D, K92V
VL: B1 VL with N8D, L14A, N80D, I88V
notes: Humanized 18C1 antibody; also called VLres14HVmut10 antibody; hz18C1 antibody
For the molecule B7, the Kd in assay [2] is 2.84 pM. The Kd values of the last two molecules are within 1.5-fold of each other.

B8: VLres14HVmut07 (antibody, V domains shown)
VH: B3 VH with S65D, E77Q, F79S
VL: B1 VL with N8D, L14A, N80D, I88V
notes: as for B5
In assay [2], B8 had an equilibrium dissociation constant (Kd) of 2.99 pM.

B9: VLres07VHres16 (antibody, V domains shown)
VH: B3 VH with Q5K, S7T, S15T, N76S, L110M
VL: B1 VL with V3A, N8D, K19T, F75S, N80D, I83V
notes: Humanized 18C1 antibody; also called VLres07VHres16 antibody; hz18C1 antibody
B9 registered a Kd in assay [2] of 3.11 pM.

B10: VLres04VHres16 (antibody, V domains shown)
VH: B3 VH with Q5K, S7T, S15T, N76S, L110M
VL: B1 VL with V3A, N8D, L14A, F75S, N80D, I88V
notes: Humanized 18C1 antibody; also called VLres04VHres16 antibody; hz18C1 antibody
Molecule B10 gave a Kd in assay [2] of 3.21 pM.

B11: VLres16HVmut07 (antibody, V domains shown)
VH: B3 VH with S65D, E77Q, F79S
VL: B1 VL with V3A, N8D, L14A, N80D, I88V
notes: as for B5
Consider B11, for which, in assay [2], the affinity, expressed as Kd, was 3.19 pM.

B12: VLres14VHres16 (antibody, V domains shown)
VH: B3 VH with Q5K, S7T, S15T, N76S, L110M
VL: B1 VL with N8D, L14A, N80D, I88V
notes: Humanized 18C1 antibody; also called VLres14VHres16 antibody; hz18C1 antibody
Take B12: binding in assay [2] was put at a Kd of 3.3 pM.

B13: VLres16VHres16 (antibody, V domains shown)
VH: B3 VH with Q5K, S7T, S15T, N76S, L110M
VL: B1 VL with V3A, N8D, L14A, N80D, I88V
notes: Humanized 18C1 antibody; also called VLres16VHres16 antibody; hz18C1 antibody
Molecule B13 displayed a Kd in assay [2] of 3.69 pM.

B14: VLres08HVmut04 (antibody, V domains shown)
VH: B3 VH
VL: B1 VL with V3A, N8D, L14A, F75S, N80D, I83V
notes: as for B5
B14 gave a Kd in assay [2] of 2.88 pM.

B15: VLres10VHres16 (antibody, V domains shown)
VH: B3 VH with Q5K, S7T, S15T, N76S, L110M
VL: B1 VL with N8D, L14A, F75S, I88V
notes: Humanized 18C1 antibody; also called VLres10VHres16 antibody; hz18C1 antibody
In assay [2], B15 had a Kd of 3.57 pM.

B16: VLres08HVmut08 (antibody, V domains shown)
VH: B3 VH with Q13K, S65D, A68T, E77Q, K92V
VL: B1 VL with V3A, N8D, L14A, F75S, N80D, I83V
notes: as for B5
B16 gave a Kd in assay [2] of 2.99 pM. This Kd and that of the molecule before are within 1.5-fold of each other.

B17: VLres10HVmut10 (antibody, V domains shown)
VH: B3 VH with S65D, K92V
VL: B1 VL with N8D, L14A, F75S, I88V
notes: Humanized 18C1 antibody; also called VLres10HVmut10 antibody; hz18C1 antibody
In assay [2], B17 gave a Kd of 2.19 pM. This Kd and that of the molecule before are within 1.5-fold of each other.

B18: VLres06HVmut10 (antibody, V domains shown)
VH: B3 VH with S65D, K92V
VL: B1 VL with N8D, L14A, F75S, N80D, I83V
notes: as for B5
On to B18, for which the Kd in assay [2] was determined as 2.94 pM.

B19: VLres07HVmut10 (antibody, V domains shown)
VH: B3 VH with S65D, K92V
VL: B1 VL with V3A, N8D, K19T, F75S, N80D, I83V
notes: Humanized 18C1 antibody; also called VLres07HVmut10 antibody; hz18C1 antibody
Turning to B19, binding in assay [2] was characterised by a dissociation constant (Kd) of 2.69 pM.

B20: VLres10HVmut08 (antibody, V domains shown)
VH: B3 VH with Q13K, S65D, A68T, E77Q, K92V
VL: B1 VL with N8D, L14A, F75S, I88V
notes: as for B5
In turn, B20 came in with a Kd in assay [2] of 3.06 pM.

B21: VLres06HVmut02 (antibody, V domains shown)
VH: B3 VH with Q13K, A68T, E77Q
VL: B1 VL with N8D, L14A, F75S, N80D, I83V
notes: as for B5
The molecule B21 had a Kd in assay [2] of 3.37 pM.

B22: VLres10HVmut04 (antibody, V domains shown)
VH: B3 VH
VL: B1 VL with N8D, L14A, F75S, I88V
notes: as for B5
B22 returned a Kd in assay [2] of 3.2 pM.

B23: VLres10HVmut02 (antibody, V domains shown)
VH: B3 VH with Q13K, A68T, E77Q
VL: B1 VL with N8D, L14A, F75S, I88V
notes: Humanized 18C1 antibody; also called VLres10HVmut02 antibody; hz18C1 antibody
As for B23, in assay [2], the Kd was determined as 3.41 pM. The Kd values of the last two molecules are within 1.5-fold of each other.

B24: VLres02HVmut08 (antibody, V domains shown)
VH: B3 VH with Q13K, S65D, A68T, E77Q, K92V
VL: B1 VL with N8D, L14A, F75S, N80D, I88V
notes: as for B5
As for B24, the affinity in assay [2], expressed as Kd, was 3.05 pM.

B25: VLres08VHres16 (antibody, V domains shown)
VH: B3 VH with Q5K, S7T, S15T, N76S, L110M
VL: B1 VL with V3A, N8D, L14A, F75S, N80D, I83V
notes: Humanized 18C1 antibody; also called VLres08VHres16 antibody; hz18C1 antibody
The molecule B25 gave a Kd in assay [2] of 3.25 pM.

B26: VLres02HVmut07 (antibody, V domains shown)
VH: B3 VH with S65D, E77Q, F79S
VL: B1 VL with N8D, L14A, F75S, N80D, I88V
notes: as for B5
The molecule B26 came in with a Kd in assay [2] of 2.97 pM. The Kd values of the last two molecules are within 1.5-fold of each other.
